Assay results as given in the supplement of paper PMC5998384.

Tests used:
[1] = test system: HeLa Kyoto; assay: solubility change mitosis vs G1/S (difference of NP-40 vs SDS log2 ratios) (log2 ratio difference); higher = more soluble in mitosis
[2] = test system: HeLa Kyoto; assay: solubility in G1/S (NP-40 vs SDS abundance) (log2 ratio); higher = more soluble; conditions: cell cycle stage: G1/S
[3] = test system: HeLa Kyoto; assay: thermal stability score vs G1/S (z-score of summed log2 fold changes over temperatures); higher = more thermally stable than in G1/S
[4] = test system: HeLa Kyoto; assay: melting temperature (median over replicates), in situ; higher = more thermally stable
[5] = cell cycle stage: early G1 (4.5 h after nocodazole release)
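Wherever melting temperature (median over replicates), in situ is given: HeLa Kyoto cells synchronized by double thymidine or nocodazole block, proteins quantified by TMT10plex mass spectrometry, three independent biological replicates.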
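Wherever solubility change mitosis vs G1/S (difference of NP-40 vs SDS log2 ratios) is given: synchronized HeLa Kyoto cells (double thymidine block for G1/S, nocodazole release for mitosis), protein amounts in NP-40 versus SDS lysates quantified by mass spectrometry, three biological replicates.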
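Wherever solubility in G1/S (NP-40 vs SDS abundance) is given: HeLa Kyoto cells arrested at G1/S by double thymidine block, proteins quantified by TMT10plex mass spectrometry in mild NP-40 versus SDS extracts, three biological replicates.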
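Wherever thermal stability score vs G1/S (z-score of summed log2 fold changes over temperatures) is given: synchronized HeLa Kyoto cells, proteins quantified by TMT10plex mass spectrometry, three biological replicates, mitosis taken 0.5 h after nocodazole release, G1/S directly after double thymidine block.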

Sequence | solubility change mitosis (log2) [1] | solubility in G1/S (log2) [2] | thermal stability score [3, 5] | thermal stability score ([3]; cell cycle stage: mitosis) | melting temperature ([4]; cell cycle stage: G1/S) | melting temperature ([4]; cell cycle stage: mitosis)
MSSSPVKRQRMESALDQLKQFTTVVADTGDFHAIDEYKPQDATTNPSLILAAAQMPAYQELVEEAIAYGRKLGGSQEDQIKNAIDKLFVLFGAEILKKIPGRVSTEVDARLSFDKDAMVARARRLIELYKEAGISKDRILIKLSSTWEGIQAGKELEEQHGIHCNMTLLFSFAQAVACAEAGVTLISPFVGRILDWHVANTDKKSYEPLEDPGVKSVTKIYNYYKKFSYKTIVMGASFRNTGEIKALAGCDFLTISPKLLGELLQDNAKLVPVLSAKAAQASDLEKIHLDEKSFRWLHNEDQMAVEKLSDGIRKFAADAVKLERMLTERMFNAENGK [TALDO1] | -0.00294 | 0.572 | -7.63 | -3.31 | 54.4 °C | 52.5 °C
MSSSVEQKKGPTRQRKCGFCKSNRDKECGQLLISENQKVAAHHKCMLFSSALVSSHSDNESLGGFSIEDVQKEIKRGTKLMCSLCHCPGATIGCDVKTCHRTYHYHCALHDKAQIREKPSQGIYMVYCRKHKKTAHNSEADLEESFNEHELEPSSPKSKKKSRKGRPRKTNFKGLSEDTRSTSSHGTDEMESSSYRDRSPHRSSPSDTRPKCGFCHVGEEENEARGKLHIFNAKKAAAHYKCMLFSSGTVQLTTTSRAEFGDFDIKTVLQEIKRGKRMKCTLCSQPGATIGCEIKACVKTYHYHCGVQDKAKYIENMSRGIYKLYCKNHSGNDERDEEDEERESKSRGKVEIDQQQLTQQQLNGN [PHF6] | 0.284 | -0.717 | 1.18 | 1.95 | 48.6 °C | 50.6 °C
MSSTSPNLQKAIDLASKAAQEDKAGNYEEALQLYQHAVQYFLHVVKYEAQGDKAKQSIRAKCTEYLDRAEKLKEYLKNKEKKAQKPVKEGQPSPADEKGNDSDGEGESDDPEKKKLQNQLQGAIVIERPNVKWSDVAGLEGAKEALKEAVILPIKFPHLFTGKRTPWRGILLFGPPGTGKSYLAKAVATEANNSTFFSISSSDLVSKWLGESEKLVKNLFQLARENKPSIIFIDEIDSLCGSRSENESEAARRIKTEFLVQMQGVGVDNDGILVLGATNIPWVLDSAIRRRFEKRIYIPLPEPHARAAMFKLHLGTTQNSLTEADFRELGRKTDGYSGADISIIVRDALMQPVRKVQSATHFKKVRGPSRADPNHLVDDLLTPCSPGDPGAIEMTWMDVPGDKLLEPVVSMSDMLRSLSNTKPTVNEHDLLKLKKFTEDFGQEG [VPS4B] | -0.125 | 0.414 | 0.98 | 1.43 | 50.5 °C | 50.2 °C
MSSVSPIQIPSRLPLLLTHEGVLLPGSTMRTSVDSARNLQLVRSRLLKGTSLQSTILGVIPNTPDPASDAQDLPPLHRIGTAALAVQVVGSNWPKPHYTLLITGLCRFQIVQVLKEKPYPIAEVEQLDRLEEFPNTCKMREELGELSEQFYKYAVQLVEMLDMSVPAVAKLRRLLDSLPREALPDILTSIIRTSNKEKLQILDAVSLEERFKMTIPLLVRQIEGLKLLQKTRKPKQDDDKRVIAIRPIRRITHISGTLEDEDEDEDNDDIVMLEKKIRTSSMPEQAHKVCVKEIKRLKKMPQSMPEYALTRNYLELMVELPWNKSTTDRLDIRAARILLDNDHYAMEKLKKRVLEYLAVRQLKNNLKGPILCFVGPPGVGKTSVGRSVAKTLGREFHRIALGGVCDQSDIRGHRRTYVGSMPGRIINGLKTVGVNNPVFLLDEVDKLGKSLQGDPAAALLEVLDPEQNHNFTDHYLNVAFDLSQVLFIATANTTATIPAALLDRMEIIQVPGYTQEEKIEIAHRHLIPKQLEQHGLTPQQIQIPQVTTLDIITRYTREAGVRSLDRKLGAICRAVAVKVAEGQHKEAKLDRSDVTEREGCREHILEDEKPESISDTTDLALPPEMPILIDFHALKDILGPPMYEMEVSQRLSQPGVAIGLAWTPLGGEIMFVEASRMDGEGQLTLTGQLGDVMKESAHLAISWLRSNAKKYQLTNAFGSFDLLDNTDIHLHFPAGAVTKDGPSAGVTIVTCLASLFSGRLVRSDVAMTGEITLRGLVLPVGGIKDKVLAAHRAGLKQVIIPRRNEKDLEGIPGNVRQDLSFVTASCLDEVLNAAFDGGFTVKTRPGLLNSKL [LONP2] | -0.132 | 0.0116 | 0.257 | 0.49 | 52.3 °C | 52.1 °C
MSTGDSFETRFEKMDNLLRDPKSEVNSDCLLDGLDALVYDLDFPALRKNKNIDNFLSRYKDTINKIRDLRMKAEDYEVVKVIGRGAFGEVQLVRHKSTRKVYAMKLLSKFEMIKRSDSAFFWEERDIMAFANSPWVVQLFYAFQDDRYLYMVMEYMPGGDLVNLMSNYDVPEKWARFYTAEVVLALDAIHSMGFIHRDVKPDNMLLDKSGHLKLADFGTCMKMNKEGMVRCDTAVGTPDYISPEVLKSQGGDGYYGRECDWWSVGVFLYEMLVGDTPFYADSLVGTYSKIMNHKNSLTFPDDNDISKEAKNLICAFLTDREVRLGRNGVEEIKRHLFFKNDQWAWETLRDTVAPVVPDLSSDIDTSNFDDLEEDKGEEETFPIPKAFVGNQLPFVGFTYYSNRRYLSSANPNDNRTSSNADKSLQESLQKTIYKLEEQLHNEMQLKDEMEQKCRTSNIKLDKIMKELDEEGNQRRNLESTVSQIEKEKMLLQHRINEYQRKAEQENEKRRNVENEVSTLKDQLEDLKKVSQNSQLANEKLSQLQKQLEEANDLLRTESDTAVRLRKSHTEMSKSISQLESLNRELQERNRILENSKSQTDKDYYQLQAILEAERRDRGHDSEMIGDLQARITSLQEEVKHLKHNLEKVEGERKEAQDMLNHSEKEKNNLEIDLNYKLKSLQQRLEQEVNEHKVTKARLTDKHQSIEEAKSVAMCEMEKKLKEEREAREKAENRVVQIEKQCSMLDVDLKQSQQKLEHLTGNKERMEDEVKNLTLQLEQESNKRLLLQNELKTQAFEADNLKGLEKQMKQEINTLLEAKRLLEFELAQLTKQYRGNEGQMRELQDQLEAEQYFSTLYKTQVKELKEEIEEKNRENLKKIQELQNEKETLATQLDLAETKAESEQLARGLLEEQYFELTQESKKAASRNRQEITDKDHTVSRLEEANSMLTKDIEILRRENEELTEKMKKAEEEYKLEKEEEISNLKAAFEKNINTERTLKTQAVNKLAEIMNRKDFKIDRKKANTQDLRKKEKENRKLQLELNQEREKFNQMVVKHQKELNDMQAQLVEECAHRNELQMQLASKESDIEQLRAKLLDLSDSTSVASFPSADETDGNLPESRIEGWLSVPNRGNIKRYGWKKQYVVVSSKKILFYNDEQDKEQSNPSMVLDIDKLFHVRPVTQGDVYRAETEEIPKIFQILYANEGECRKDVEMEPVQQAEKTNFQNHKGHEFIPTLYHFPANCDACAKPLWHVFKPPPALECRRCHVKCHRDHLDKKEDLICPCKVSYDVTSARDMLLLACSQDEQKKWVTHLVKKIPKNPPSGFVRASPRTLSTRSTANQSFRKVVKNTSGKTS [ROCK1] | -0.138 | -0.0278 | -0.147 | -0.118 | 50.4 °C | 50.2 °C
MSTKNFRVSDGDWICPDKKCGNVNFARRTSCNRCGREKTTEAKMMKAGGTEIGKTLAEKSRGLFSANDWQCKTCSNVNWARRSECNMCNTPKYAKLEERTGYGGGFNERENVEYIEREESDGEYDEFGRKKKKYRGKAVGPASILKEVEDKESEGEEEDEDEDLSKYKLDEDEDEDDADLSKYNLDASEEEDSNKKKSNRRSRSKSRSSHSRSSSRSSSPSSSRSRSRSRSRSSSSSQSRSRSSSRERSRSRGSKSRSSSRSHRGSSSPRKRSYSSSSSSPERNRKRSRSRSSSSGDRKKRRTRSRSPERRHRSSSGSSHSGSRSSSKKK [ZRANB2] | -0.011 | -0.0186 | 0.299 | 0.397 | 58 °C | 
MSTPAVPQDLQLPPSQRAQSAFKEQRRQKLKEHLLRRKTLFAYKQENEMLSSSRDQRVVTSEDQVQEGTKVLKLKTKMADKENMKRPAESKNNTVVGKHCIPLKPSNELTNSTVVIDTHKPKDSNQTPHLLLTEDDPQSQHMTLSQAFHLKNNSKKKQMTTEKQKQDANMPKKPVLGSYRGQIVQSKINSFRKPLQVKDESSAATKKLSATIPKATKPQPVNTSSVTVKSNRSSNMTATTKFVSTTSQNTQLVRPPIRSHHSNTRDTVKQGISRTSANVTIRKGPHEKELLQSKTALSSVKTSSSQGIIRNKTLSRSIASEVIARPASLSNDKLMEKSEPVDQRRHTAGKAIVDSRSAQPKETSEERKARLSEWKAGKGRVLKRPPNSVVTQHEPAGQNEKPVGSFWTTMAEEDEQRLFTEKVNNTFSECLNLINEGCPKEDILVTLNDLIKNIPDAKKLVKYWICLALIEPITSPIENIIAIYEKAILAGAQPIEEMRHTIVDILTMKSQEKANLGENMEKSCASKEEVKEVSIEDTGVDVDPEKLEMESKLHRNLLFQDCEKEQDNKTKDPTHDVKTPNTETRTSCLIKYNVSTTPYLQSVKKKVQFDGTNSAFKELKFLTPVRRSRRLQEKTSKLPDMLKDHYPCVSSLEQLTELGRETDAFVCRPNAALCRVYYEADTT [CKAP2] | 0.657 | -0.733 | -1.31 | -0.259 | 51 °C | 49.3 °C
